Source: publication PMC9054839 (2022)

B1: C-terminally ypet-tagged full-length talin WT [mouse] / paxillin (endogenous, fibroblasts) [mouse (endogenous in talin^1/2dko fibroblasts)] (parent complex)
chain 1: MVALSLKISIGNVVKTMQFEPSTMVYDACRMIRERIPEALAGPPNDFGLFLSDDDPKKGIWLEAGKALDYYMLRNGDTMEYRKKQRPLKIRMLDGTVKTIMVDDSKTVTDMLMTICARIGITNHDEYSLVRELMEEKKDEGTGTLRKDKTLLRDEKKMEKLKQKLHTDDELNWLDHGRTLREQGVEEHETLLLRRKFFYSDQNVDSRDPVQLNLLYVQARDDILNGSHPVSFDKACEFAGFQCQIQFGPHNEQKHKAGFLDLKDFLPKEYVKQKGERKIFQAHKNCGQMSEIEAKVRYVKLARSLKTYGVSFFLVKEKMKGKNKLVPRLLGITKECVMRVDEKTKEVIQEWSLTNIKRWAASPKSFTLDFGDYQDGYYSVQTTEGEQIAQLIAGYIDIILKKKKSKDHFGLEGDEESTMLEDSVSPKKSTVLQQQYNRVGKVEHGSVALPAIMRSGASGPENFQVGSMPPAQQQITSGQMHRGHMPPLTSAQQALTGTINSSMQAVQAAQATLDDFETLPPLGQDAASKAWRKNKMDESKHEIHSQVDAITAGTASVVNLTAGDPAETDYTAVGCAVTTISSNLTEMSRGVKLLAALLEDEGGNGRPLLQAAKGLAGAVSELLRSAQPASAEPRQNLLQAAGNVGQASGELLQQIGESDTDPHFQDVLMQLAKAVASAAAALVLKAKSVAQRTEDSGLQTQVIAAATQCALSTSQLVACTKVVAPTISSPVCQEQLVEAGRLVAKAVEGCVSASQAATEDGQLLRGVGAAATAVTQALNELLQHVKAHATGAGPAGRYDQATDTILTVTENIFSSMGDAGEMVRQARILAQATSDLVNAIKADAEGESDLENSRKLLSAAKILADATAKMVEAAKGAAAHPDSEEQQQRLREAAEGLRMATNAAAQNAIKKKLVQRLEHAAKQAAASATQTIAAAQHAASAPKASAGPQPLLVQSCKAVAEQIPLLVQGVRGSQAQPDSPSAQLALIAASQSFLQPGGKMVAAAKASVPTIQDQASAMQLSQCAKNLGTALAELRTAAQKAQEACGPLEMDSALSVVQNLEKDLQEIKAAARDGKLKPLPGETMEKCTQDLGNSTKAVSSAIAKLLGEIAQGNENYAGIAARDVAGGLRSLAQAARGVAALTSDPAVQAIVLDTASDVLDKASSLIEEAKKASGHPGDPESQQRLAQVAKAVTQALNRCVSCLPGQRDVDNALRAVGDASKRLLSDSLPPSTGTFQEAQSRLNEAAAGLNQAATELVQASRGTPQDLARASGRFGQDFSTFLEAGVEMAGQAPSQEDRAQVVSNLKGISMSSSKLLLAAKALSTDPASPNLKSQLAAAARAVTDSINQLITMCTQQAPGQKECDNALRQLETVRELLENPVQPINDMSYFGCLDSVMENSKVLGEAMTGISQNAKNGNLPEFGDAIATASKALCGFTEAAAQAAYLVGVSDPNSQAGQQGLVEPTQFARANQAIQMACQSLGEPGCTQAQVLSAATIVAKHTSALCNSCRLASARTANPTAKRQFVQSAKEVANSTANLVKTIKALDGDFTEENRAQCRAATAPLLEAVDNLSAFASNPEFSSVPAQISPEGRAAMEPIVISAKTMLESAGGLIQTARALAVNPRDPPRWSVLAGHSRTVSDSIKKLITSMRDKAPGQLECETAIAALNSCLRDLDQASLAAVSQQLAPREGISQEALHTQMLTAVQEISHLIEPLASAARAEASQLGHKVSQMAQYFEPLTLAAVGAASKTLSHPQQMALLDQTKTLAESALQLLYTAKEAGGNPKQAAHTQEALEEAVQMMTEAVEDLTTTLNEAASAAGVVGGMVDSITQAINQLDEGPMGDPEGSFVDYQTTMVRTAKAIAVTVQEMVTKSNTSPEELGPLANQLTSDYGRLASQAKPAAVAAENEEIGAHIKHRVQELGHGCSALVTKAGALQCSPSDVYTKKELIECARRVSEKVSHVLAALQAGNRGTQACITAASAVSGIIADLDTTIMFATAGTLNREGAETFADHREGILKTAKVLVEDTKVLVQNAAGSQEKLAQAAQSSVATITRLADVVKLGAASLGAEDPETQVVLINAVKDVAKALGDLISATKAAAGKVGDDPAVWQLKNSAKVMVTNVTSLLKTVKAVEDEATKGTRALEATTEHIRQELAVFCSPEPPAKTSTPEDFIRMTKGITMATAKAVAAGNSCRQEDVIATANLSRRAIADMLRACKEAAFHPEVAPDVRLRALHYGRECANGYLELLDHVLLTLQKPNPDLKQQLTGHSKRVAGSVTELIQAAEAMKGTEWVDPEDPTVIAENELLGAAAAIEAAAKKLEQLKPRAKPKEADESLNFEEQILEAAKSIAAATSALVKAASAAQRELVAQGKVGAIPANALDDGQWSQGLISAARMVAAATNNLCEAANAAVQGHASQEKLISSAKQVAASTAQLLVACKVKADQDSEAMKRLQAAGNAVKRASDNLVKAAQKAAAFEDQENETVVVKEKMVGGIAQIIAAQEEMLRKERELEEARKKLAQIRQQQYKFLPSELRDEH
chain 2: not shown

Variants of: B1
Assay: anti-GFP immunoprecipitation, western blot quantification; talin1/2dKO fibroblasts, N = 3; parent: 1; read off a plot

Variant | ratio to parent
chain 1 A680E, chain 1 K687E, chain 1 T2126E, chain 1 K2133E | ~0.28
chain 1 T2126E, chain 1 K2133E | ~0.69
chain 1 A680E, chain 1 K687E | ~0.44
